The results in this text go back to paper PMC10511499.

The assay has as its target human dynein complex, wild type (tagged IC2C with the dynein subunits of 293 cells) (told two ways: 'Rat IC2C' (methods), human (results, legend) | human (endogenous in Flp-In T-REx 293 cells)) (UniProt Q14204). In words: TIRF microscopy microtubule recruitment assay; mammalian proteins; dynein or DDB on biotin-microtubules, SRP90 assay buffer with 2 mM AMP-PNP, 10 min; apparent affinity.

Turning to “human dynactin p150-CC1 (residues 224-554) (from UniProt Q14203-1 224-554) (domain or fragment)”, the fold greater apparent affinity than Ndel1 was determined as 6 fold.
